Columns and labels:
[1] = biological target: T1, recombinant human PD-L1 (Sino Biological Inc.) (human, UniProt Q9NZQ7 19-239); experiment: ELISA, plate coated with 1 ug/mL recombinant human PD-L1, anti-mouse IgG-HRP, OD450
Procedure: The plate was washed 5 times with PBST, and then blocked using PBST with 1% BSA, 300 μL/well, and incubated at 25° C. for 1 hour, and then washed 5 times with PBST. […] The plate was washed 5 times with PBST. The colorimetric substrate TMB was added, 100 μL/well, and developed at room temperature for 10 minutes. 1M H₂SO₄ was added, 100 μL/well, to stop the development. The absorbance at 450 nm was read on a microplate reader.

[2] = biological target: T2, recombinant human PD-L1-Fc protein (human, UniProt Q9NZQ7 19-238, limits assumed); experiment: blocking ELISA, plate coated with 1 ug/mL human PD-L1-Fc; blocked ligand biotin-labelled PD-1-Fc at 20 nM final, streptavidin-HRP, OD450
T2 construct: Prepared by Beijing Hanmi Pharmaceutical; The GenBank number is NP_001254635.1
T2 sequence (Q9NZQ7 19-238 limits assumed): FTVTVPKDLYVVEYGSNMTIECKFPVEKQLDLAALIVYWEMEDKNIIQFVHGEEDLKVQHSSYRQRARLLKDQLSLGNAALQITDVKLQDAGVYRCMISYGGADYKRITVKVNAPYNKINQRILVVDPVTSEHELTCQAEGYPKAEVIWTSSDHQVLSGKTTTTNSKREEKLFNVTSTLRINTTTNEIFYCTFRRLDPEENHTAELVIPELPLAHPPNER
Procedure: (§1) A 96-well high-adsorption ELISA plate was coated with 1 μg/mL of the recombinant human PD-L1-Fc at 100 μL per well using carbonate buffer solution, pH=9.6 at 4° C. overnight. The plate was washed 5 times with PBST, and then blocked using PBST with 1% BSA, 300 μL/well, and incubated at 25° C. for 1 hour, and then washed 5 times with PBST. […] The Streptavidin-HRP (BD Pharmingen, catalog number 554066) diluted 1:1000 in PBST with 1% BSA was then added, 100 μL per well, and incubated at 25° C. for 1 hour. The plate was washed 5 times with PBST. The colorimetric substrate TMB was added, 100 μL/well, and developed at room temperature for 10 minutes. 1M H₂SO₄ was added, 100 μL/well, to stop the development. The absorbance at 450 nm was read on a microplate reader.

[3] = biological target: T1, recombinant human PD-L1 (Sino …); experiment: SPR, Biacore X100
Procedure: This instrument utilizes optical surface plasmon resonance technology to detect the association and dissociation between the molecules coated on the biochip and the molecules to be tested. Association constants and dissociation constants were analyzed and calculated by Biacore X100 evaluation software. […]

[4] = biological target: T1, recombinant human PD-L1 (Sino …); experiment: ELISA, human PD-L1 coated
Procedure: as §1, with “PD-L1 (Sino Biological Inc.)” for “PD-L1-Fc”, “horseradish peroxidase-labeled anti-human IgG antibody (Chemicon,” for “Streptavidin-HRP (BD Pharmingen,”, “AP309P)” for “554066)”, “1:10000” for “1:1000”

[5] = biological target: T1, recombinant human PD-L1 (Sino …); experiment: PD-L1/CD80 blocking assay, competitor CD80, format not described
[6] = biological target: T1, recombinant human PD-L1 (Sino …); experiment: affinity determination (dissociation constant), method not stated
[7] = biological target: T2, recombinant human PD-L1-Fc protein; experiment: competition ELISA: PD-L1-Fc coated, competitor biotin-labelled PD-1-Fc
Procedure: as §1

T1 sequence (Q9NZQ7 19-239 limits assumed): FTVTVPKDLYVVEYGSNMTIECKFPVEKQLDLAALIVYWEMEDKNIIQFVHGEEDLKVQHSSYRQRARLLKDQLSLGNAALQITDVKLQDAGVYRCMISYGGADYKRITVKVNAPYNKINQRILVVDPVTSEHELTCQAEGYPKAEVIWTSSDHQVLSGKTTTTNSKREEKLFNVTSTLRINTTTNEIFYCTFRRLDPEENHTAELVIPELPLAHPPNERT

Binder | EC50 [1] [nM] | IC50 [2] [nM] | Kd [3] [nM] | koff [3] [s⁻¹] | kon [3] [M⁻¹ s⁻¹] | EC50 [4] [nM] | IC50 [5] [nM] | koff [6] [s⁻¹] | IC50 [7] [nM]
murine anti-human PD-L1 monoclonal antibody secreted by the clone 34-35 (antibody, V domains shown, also called murine monoclonal antibodies) VH: EVQLQQSGAELVKPGASVKLSCTASGFNIEDTYIHWVMQRPEQGLEWIGRIDPANGNTKYDPKFQGKATITADTSSNTAYLQLSSLTSEDTAVYYCGRGLGAWFAYWGQGTLVTVSA VL: DIVMTQSHKVMSTSVGDRVTITCKASQDVHTAVAWIHQKPGQSPKLLIYSASNRYTGVPDRFTGSGSGTDFTFTISSVQAEDLAVYYCQQHYITPLTFGAGTTLELK | 0.494 | 0.61 | – | – | – | – | – | – | –
humanized anti-human PD-L1 monoclonal antibody VLS10-VHS7 (antibody, human IgG1, kappa, V domains shown) VH: QVQLVQSGAEVKKPGSSVKVSCTASGFNIEDTYIHWVRQAPGQGLEWMGRIDPANGNTKYDPKFQGRVTITADTSTNTAYMELSSLRSEDTAVYYCGRGLGAWFAYWGQGTLVTVSS VL: DIQMTQSPSSLSASVGDRVTITCKASQDVHTAVAWIHQKPGKAPKLLIYSASNRYTGVPSRFSGSGSGTDFTFTISSLQPEDIATYYCQQHYITPLTFGQGTKLEIKR | – | – | 1.71 | 0.000584 | 341000 | 0.067 | 0.89 | 0.000672 | 0.749
humanized anti-human PD-L1 monoclonal antibody VLS15-VHS12 (antibody, human IgG1, kappa, V domains shown) VH: EVQLVQSGAEVKKPGSSVKVSCKASGFNIEDTYIHWVRQAPGQGLEWMGRIDPANGNTKYDPKFQGRVTITADTSTNTAYMELSSLRSEDTAVYYCGRGLGAWFAYWGQGTLVTVSS VL: DIQMTQSPSSLSASVGDRVTITCKASQDVHTAVAWIQQKPGKSPKLLIYSASNRYTGVPSRFSGSGSGTDFTFTISSLQPEDIATYYCQQHYITPLTFGQGTKLEIKR | – | – | 1.39 | 0.000477 | 342000 | 0.046 | 0.802 | 0.000486 | 0.666
humanized anti-human PD-L1 monoclonal antibody VLS10-VHS7 P2 (antibody, human IgG1, kappa, V domains shown) VH: QVQLVQSGAEVKKPGSSVKVSCTASGFNIEDTYIHWVRQAPGQGLEWMGRIDPASGNTKYDPKFQGRVTITADTSTNTAYMELSSLRSEDTAVYYCGRGLGAWFAYWGQGTLVTVSS VL: DIQMTQSPSSLSASVGDRVTITCKASQDVHTAVAWIHQKPGKAPKLLIYSASNRYTGVPSRFSGSGSGTDFTFTISSLQPEDIATYYCQQHYITPLTFGQGTKLEIKR | – | – | 3.23 | 0.000994 | 307000 | 0.059 | 0.857 | – | 0.725
humanized anti-human PD-L1 monoclonal antibody VLS10-VHS7 P3 (antibody, human IgG1, kappa, V domains shown) VH: QVQLVQSGAEVKKPGSSVKVSCTASGFNIEDTYIHWVRQAPGQGLEWMGRIDPANANTKYDPKFQGRVTITADTSTNTAYMELSSLRSEDTAVYYCGRGLGAWFAYWGQGTLVTVSS VL: DIQMTQSPSSLSASVGDRVTITCKASQDVHTAVAWIHQKPGKAPKLLIYSASNRYTGVPSRFSGSGSGTDFTFTISSLQPEDIATYYCQQHYITPLTFGQGTKLEIKR | – | – | 2.93 | 0.000747 | 255000 | 0.063 | 0.804 | – | 0.617
humanized anti-human PD-L1 monoclonal antibody VLS10-VHS7 P1 (antibody, human IgG1, kappa, V domains shown) VH: QVQLVQSGAEVKKPGSSVKVSCTASGFNIEDTYIHWVRQAPGQGLEWMGRIDPAQGNTKYDPKFQGRVTITADTSTNTAYMELSSLRSEDTAVYYCGRGLGAWFAYWGQGTLVTVSS VL: DIQMTQSPSSLSASVGDRVTITCKASQDVHTAVAWIHQKPGKAPKLLIYSASNRYTGVPSRFSGSGSGTDFTFTISSLQPEDIATYYCQQHYITPLTFGQGTKLEIKR | – | – | 3.16 | 0.00108 | 341000 | 0.067 | 0.865 | – | 0.756
humanized anti-human PD-L1 monoclonal antibody VLS15-VHS12 P1 (antibody, human IgG1, kappa, V domains shown) VH: EVQLVQSGAEVKKPGSSVKVSCKASGFNIEDTYIHWVRQAPGQGLEWMGRIDPAQGNTKYDPKFQGRVTITADTSTNTAYMELSSLRSEDTAVYYCGRGLGAWFAYWGQGTLVTVSS VL: DIQMTQSPSSLSASVGDRVTITCKASQDVHTAVAWIQQKPGKSPKLLIYSASNRYTGVPSRFSGSGSGTDFTFTISSLQPEDIATYYCQQHYITPLTFGQGTKLEIKR | – | – | 2.56 | 0.000833 | 326000 | 0.048 | 0.795 | – | 0.567
humanized anti-human PD-L1 monoclonal antibody VLS15-VHS12 P3 (antibody, human IgG1, kappa, V domains shown) VH: EVQLVQSGAEVKKPGSSVKVSCKASGFNIEDTYIHWVRQAPGQGLEWMGRIDPANANTKYDPKFQGRVTITADTSTNTAYMELSSLRSEDTAVYYCGRGLGAWFAYWGQGTLVTVSS VL: DIQMTQSPSSLSASVGDRVTITCKASQDVHTAVAWIQQKPGKSPKLLIYSASNRYTGVPSRFSGSGSGTDFTFTISSLQPEDIATYYCQQHYITPLTFGQGTKLEIKR | – | – | 1.56 | 0.000528 | 338000 | 0.075 | 0.813 | – | 0.613
humanized anti-human PD-L1 monoclonal antibody VLS15-VHS12 P2 (antibody, human IgG1, kappa, V domains shown) VH: EVQLVQSGAEVKKPGSSVKVSCKASGFNIEDTYIHWVRQAPGQGLEWMGRIDPASGNTKYDPKFQGRVTITADTSTNTAYMELSSLRSEDTAVYYCGRGLGAWFAYWGQGTLVTVSS VL: DIQMTQSPSSLSASVGDRVTITCKASQDVHTAVAWIQQKPGKSPKLLIYSASNRYTGVPSRFSGSGSGTDFTFTISSLQPEDIATYYCQQHYITPLTFGQGTKLEIKR | – | – | 1.94 | 0.00072 | 372000 | 0.06 | 0.755 | – | 0.585

— patent publication US20240301068A1 (BEIJING HANMI PHARMACEUTICAL, published 2024)
